Results on 15 molecules are retold here after US20260209362A1 (VIB VZW, published 2026).

One assay has as its target CD20 (human) (UniProt P11836).
In assay [1] the target is human IL-12Rβ2 expressed on cells (human) (UniProt Q99665).
Assay [2] has as its target T1, biotinylated recombinant human IL-12Rβ2 (human, UniProt Q99665 24-622, random biotinylated).
T1 construct: Recombinant protein produced in-house, biotinylated; also called hIL-12RB2; human IL-12RB2
T1 sequence: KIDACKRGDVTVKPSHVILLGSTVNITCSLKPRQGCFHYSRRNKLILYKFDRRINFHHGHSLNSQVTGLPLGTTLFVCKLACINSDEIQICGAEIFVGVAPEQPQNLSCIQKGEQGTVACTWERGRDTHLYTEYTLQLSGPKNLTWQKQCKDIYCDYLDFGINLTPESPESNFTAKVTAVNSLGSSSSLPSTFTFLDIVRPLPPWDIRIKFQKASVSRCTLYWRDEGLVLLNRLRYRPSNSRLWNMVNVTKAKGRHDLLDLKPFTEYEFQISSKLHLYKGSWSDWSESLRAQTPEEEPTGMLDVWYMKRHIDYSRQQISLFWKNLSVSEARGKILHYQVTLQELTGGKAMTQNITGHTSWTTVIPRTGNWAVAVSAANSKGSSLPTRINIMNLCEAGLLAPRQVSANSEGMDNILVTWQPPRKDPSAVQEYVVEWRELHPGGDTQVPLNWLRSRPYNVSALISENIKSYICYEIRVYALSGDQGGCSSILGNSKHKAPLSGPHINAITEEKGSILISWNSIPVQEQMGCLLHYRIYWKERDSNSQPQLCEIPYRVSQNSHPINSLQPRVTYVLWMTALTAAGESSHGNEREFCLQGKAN
Nature of the assay: BLI (Octet), periplasmic extract on biotinylated hIL-12Rβ2 on streptavidin tips. (In general: Biolayer interferometry detects binding as a change in optical thickness at a sensor tip.)

The target of assay [3] is T2, biotinylated recombinant mouse IL-12Rβ2 (mouse, UniProt P97378 24-637, random biotinylated).
T2 construct: Recombinant protein produced in-house, biotinylated; also called mIL-12RB2; mouse IL-12RB2
T2 sequence: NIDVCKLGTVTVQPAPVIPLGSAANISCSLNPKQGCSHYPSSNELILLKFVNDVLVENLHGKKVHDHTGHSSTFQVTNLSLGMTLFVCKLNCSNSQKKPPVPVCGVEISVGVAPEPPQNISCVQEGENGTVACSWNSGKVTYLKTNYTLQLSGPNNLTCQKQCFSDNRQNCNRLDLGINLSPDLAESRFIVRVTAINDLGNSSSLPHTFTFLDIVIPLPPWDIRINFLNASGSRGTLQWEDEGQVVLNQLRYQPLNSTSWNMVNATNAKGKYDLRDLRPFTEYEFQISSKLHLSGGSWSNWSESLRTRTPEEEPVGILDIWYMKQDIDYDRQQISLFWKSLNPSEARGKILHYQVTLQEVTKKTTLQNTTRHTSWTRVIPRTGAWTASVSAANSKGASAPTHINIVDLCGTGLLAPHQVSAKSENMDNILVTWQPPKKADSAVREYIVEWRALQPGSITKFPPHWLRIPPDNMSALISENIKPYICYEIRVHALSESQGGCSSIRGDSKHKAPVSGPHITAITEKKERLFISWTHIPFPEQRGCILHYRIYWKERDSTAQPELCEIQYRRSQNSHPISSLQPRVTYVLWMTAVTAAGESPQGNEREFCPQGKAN
Nature of the assay: BLI (Octet), periplasmic extract on biotinylated mIL-12Rβ2 on streptavidin tips.

The target in assay [4] is T1, biotinylated recombinant human IL-12Rβ2. Nature of the assay: ELISA, periplasmic extract on biotinylated hIL-12Rβ2, signal over control wells. On the technique in general: ELISA stands for enzyme-linked immunosorbent assay.
In assay [5] the target is T2, biotinylated recombinant mouse IL-12Rβ2. Nature of the assay: ELISA, periplasmic extract on biotinylated mIL-12Rβ2, signal over control wells.
Assay [6] addresses T1, biotinylated recombinant human IL-12Rβ2. Nature of the assay: BLI (Octet), periplasmic extract on biotinylated hIL-12Rβ2 on streptavidin tips, 1:1 model.
For assay [7], the target named is T2, biotinylated recombinant mouse IL-12Rβ2. Nature of the assay: BLI (Octet), periplasmic extract on biotinylated mIL-12Rβ2 on streptavidin tips, 1:1 model.

Substitutions are numbered along the chain they refer to.

Chain of CD20 (human) (P11836 whole entry): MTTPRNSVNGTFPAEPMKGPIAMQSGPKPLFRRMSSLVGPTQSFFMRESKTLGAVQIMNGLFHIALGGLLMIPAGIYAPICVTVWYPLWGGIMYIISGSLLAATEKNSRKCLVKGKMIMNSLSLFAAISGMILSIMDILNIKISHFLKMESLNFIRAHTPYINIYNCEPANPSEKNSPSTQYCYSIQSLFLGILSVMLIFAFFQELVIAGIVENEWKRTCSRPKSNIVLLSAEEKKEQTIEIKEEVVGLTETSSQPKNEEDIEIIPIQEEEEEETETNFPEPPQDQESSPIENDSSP

In the assay with CD20 (human), Rituximab (antibody) came in with a % Specific Cell Lysis at 0.00125 ug/mL of 52.4%, a % Specific Cell Lysis at 0.025 ug/mL of 64.7%, a % Specific Cell Lysis at 0.5 ug/mL of 75.6% and a % Specific Cell Lysis at 10 ug/mL of 77.5%.

In assay [1], IgG1 (antibody) yielded a % Specific Cell Lysis at 0.00125 ug/mL of 47.5%, a % Specific Cell Lysis at 0.025 ug/mL of 50.4%, a % Specific Cell Lysis at 0.5 ug/mL of 48.7% and a % Specific Cell Lysis at 10 ug/mL of 44.6%.

B1: anti-IL-12Rβ2 VHH clone 21061 (VHH, not shown: small tags and cut ends)
VHH: QVQLQESGGGLVQPGGSLRLSCAASRRTFSKHAMAWFRQAPGKEREFVAVVRWSGIITYYADSVKGRFTISRDDAKNTVYLQMDSLKPEDTAVYYCAAGDYRGNGYYVPGMYDYWGQGTQVTVSS
notes: tested as periplasmic extract; also called 3CRHM85
The term koff denotes the first-order rate constant of dissociation. Consider B1, for which the Response in assay [2] amounted to 1.32; in assay [3], 0.816. In assay [4], the “ELISA binding hIL-12RB2/control” value stood at 3.52 ratio. Further, in assay [5], the “ELISA binding mIL-12RB2/control” value is 8 ratio. Moreover, the koff in assay [6] was determined as 0.00343 s⁻¹; in assay [7] it was 0.00474 s⁻¹.

B2: anti-IL-12Rβ2 VHH clone 21055 (VHH, not shown: small tags and cut ends)
VHH: QVQLQESGGGLVQAGGSLRLSCAASGRTFSKSTMGWFRQTPGKEREFVAAITWTDTEVYANSVKDRFTISRDNAKNTFYLQMHSLKLEDTAVYYCAGDRYGSSRDSVFSSPTNYPYWGQGTQVTVSS
notes: tested as periplasmic extract; also called 3CRHM20
With B2, the Response in assay [2] came out at 1.18; in assay [3] it was 0.586. In addition, the “ELISA binding hIL-12RB2/control” value in assay [4] stood at 8.23 ratio. Also, in assay [5], the “ELISA binding mIL-12RB2/control” value was found to be 20.2 ratio. Besides, the figures for the koff in assay [6] and in assay [7] were 0.00486 s⁻¹ and 0.0059 s⁻¹, respectively.

B3: anti-IL-12Rβ2 VHH clone 21062 (VHH, not shown: small tags and cut ends)
VHH: QVQLQESGGGLVQPGGSLRLSCAASGISSSRLHVGWFRQSPGKEREFVAAISLSGGTQAYTDSVKGRFTISGDNVKNTAYLQMNSLRPEDTAVYYCAARERFIWTWSDLTYDYWGQGTQVTVSS
notes: tested as periplasmic extract; also called 3CRHM99
B3: the Response was determined as 1.45 in assay [2] and 0.812 in assay [3]. In assay [4], the “ELISA binding hIL-12RB2/control” value was 4.24 ratio. For the same molecule, the “ELISA binding mIL-12RB2/control” value in assay [5] is 5.24 ratio. For the same molecule, the figures for the koff in assay [6] and in assay [7] were 0.00634 s⁻¹ and 0.00671 s⁻¹, respectively.

B4: anti-IL-12Rβ2 VHH clone 21052 (VHH, not shown: small tags and cut ends)
VHH: QVQLQESGGGSVQAGGSLRLSCAVSGRTVSDYAMGWFRQAPGKEREFVAAMSSSETTVYPNSVKGRITISRDNAKNAVYLQMNALKPEDTAVYYCSMGPIVTFQGLARQNEYHYWGQGTQVTVSS
notes: tested as periplasmic extract; also called 3CRHM12
B4: the Response came out at 1.32 in assay [2] and 0.837 in assay [3]. Also, the “ELISA binding hIL-12RB2/control” value in assay [4] amounted to 7.28 ratio. In addition, the “ELISA binding mIL-12RB2/control” value in assay [5] is 38.3 ratio. The koff in assay [6] was 0.00547 s⁻¹; in assay [7] it was 0.00599 s⁻¹.

B5: anti-IL-12Rβ2 VHH clone 21065 (VHH, not shown: small tags and cut ends)
VHH: B4 VHH with A49V, P60T, V101T
notes: tested as periplasmic extract; also called 3CRHM240
For B5, the Response was 1.5 in assay [2] and 1.05 in assay [3]. Also, the “ELISA binding hIL-12RB2/control” value in assay [4] stood at 3.78 ratio. Moreover, the “ELISA binding mIL-12RB2/control” value in assay [5] came out at 5.72 ratio. For the same molecule, the koff in assay [6] was 0.00457 s⁻¹; in assay [7] it was 0.00483 s⁻¹.

B6: anti-IL-12Rβ2 VHH clone 21051 (VHH, not shown: small tags and cut ends)
VHH: B4 VHH with V63M, M82L, V101A
notes: tested as periplasmic extract; also called 3CAHM40
For B6, the Response in assay [2] came to 1.32; in assay [3] it was 0.809. The “ELISA binding hIL-12RB2/control” value in assay [4] is 3.73 ratio. In addition, in assay [5], the “ELISA binding mIL-12RB2/control” value was determined as 11.9 ratio. In addition, the off-rate (koff) is 0.00578 s⁻¹ in assay [6] and 0.00644 s⁻¹ in assay [7].

B7: anti-IL-12Rβ2 VHH clone 21063 (VHH, not shown: small tags and cut ends)
VHH: B4 VHH with T28P, M51L, S53A, E55D, Y79D, S96A, V101G
notes: tested as periplasmic extract; also called 3CRHM133
With B7, the Response was determined as 1.13 in assay [2] and 0.97 in assay [3]. Further, the “ELISA binding hIL-12RB2/control” value in assay [4] came to 3.46 ratio. In assay [5], the “ELISA binding mIL-12RB2/control” value came to 3.92 ratio. Also, the koff is 0.00389 s⁻¹ in assay [6] and 0.00667 s⁻¹ in assay [7].

B8: anti-IL-12Rβ2 VHH clone 21060 (VHH, not shown: small tags and cut ends)
VHH: QVQLQESGGGLVQAGGSLSLSCAASGSAFRLNFMGWYRQAPGKQRELVAAINSGGTEIYHDSVKGRFTISRDNADSTVWLQMNSLKPDDTAVYYCAADRGISWSKLAGGMDYWGKGTQVTVSS
notes: tested as periplasmic extract; also called 3CRHM73
Take B8: the Response in assay [2] was 1.45; in assay [3], 0.944. For the same molecule, the “ELISA binding hIL-12RB2/control” value in assay [4] came to 6.9 ratio. In addition, in assay [5], the “ELISA binding mIL-12RB2/control” value amounted to 26.3 ratio. The koff in assay [6] and in assay [7] was 0.00605 s⁻¹ in each case.

B9: anti-IL-12Rβ2 VHH clone 21058 (VHH, not shown: small tags and cut ends)
VHH: QVQLQESGGGLVQAGGSLRLSCAASGRTFSNYAMAWFRQAPGTEREFVAGLSGSGGDTAFYDNSVMGRFTISRDSAKNTMWLQINNLKPEDTAVYYCAAATHVVVSYGLVRRRGTYDYWGQGTQVTVSS
notes: tested as periplasmic extract; also called 3CRHM49
Take B9: the Response in assay [2] came to 1.54; in assay [3] it was 1.15. In addition, in assay [4], the “ELISA binding hIL-12RB2/control” value was found to be 3.2 ratio. Also, the “ELISA binding mIL-12RB2/control” value in assay [5] turned out to be 41.2 ratio. In addition, the koff in assay [6] came to 0.00619 s⁻¹; in assay [7] it was 0.00583 s⁻¹.

B10: anti-IL-12Rβ2 VHH clone 21057 (VHH, not shown: small tags and cut ends)
VHH: B9 VHH with S106N
notes: tested as periplasmic extract; also called 3CRHM35
On to B10, for which the values for the Response in assay [2] and in assay [3] were 1.36 and 1.04, respectively. The “ELISA binding hIL-12RB2/control” value in assay [4] was 4.84 ratio. The “ELISA binding mIL-12RB2/control” value in assay [5] came to 35.5 ratio. Moreover, the results for the koff in assay [6] and in assay [7] were 0.00576 s⁻¹ and 0.00535 s⁻¹, respectively.

B11: anti-IL-12Rβ2 VHH clone 21053 (VHH, not shown: small tags and cut ends)
VHH: B9 VHH with A59E, N63D, M66K, T70A, M80V, I84M, N86S, S106H
notes: tested as periplasmic extract; also called 3CRHM14
With B11, the Response in assay [2] came out at 1.19; in assay [3], 0.957. In addition, in assay [4], the “ELISA binding hIL-12RB2/control” value came out at 3.11 ratio. Also, in assay [5], the “ELISA binding mIL-12RB2/control” value came to 25.1 ratio. Also, the koff in assay [6] was determined as 0.00532 s⁻¹; in assay [7], 0.00483 s⁻¹.

B12: anti-IL-12Rβ2 VHH clone 21064 (VHH, not shown: small tags and cut ends)
VHH: B9 VHH with A14P
notes: tested as periplasmic extract; also called 3CRHM200
With B12, the Response in assay [2] was 1.38; in assay [3], 1.01. The “ELISA binding hIL-12RB2/control” value in assay [4] came out at 3.58 ratio. The “ELISA binding mIL-12RB2/control” value in assay [5] amounted to 5.37 ratio. Further, the values for the koff in assay [6] and in assay [7] were 0.00571 s⁻¹ and 0.00546 s⁻¹, respectively.

B13: anti-IL-12Rβ2 VHH clone 21054 (VHH, not shown: small tags and cut ends)
VHH: B9 VHH with A14D, R112K
notes: tested as periplasmic extract; also called 3CRHM18
On to B13, for which the Response was 1.14 in assay [2] and 0.699 in assay [3]. Moreover, the “ELISA binding hIL-12RB2/control” value in assay [4] was 3.61 ratio. Further, in assay [5], the “ELISA binding mIL-12RB2/control” value stood at 45 ratio. Besides, the figures for the koff in assay [6] and in assay [7] were 0.00548 s⁻¹ and 0.00618 s⁻¹, respectively.
